{"source": "patent US20220204638A1", "about": "“Combination Therapies Comprising Daratumumab, Bortezomib, Thalidomide and Dexamethasone and Their Uses” (Janssen Biotech, Inc., priority 2019, published 2022)", "key": {"[1]": {"test_system": "relapsed and refractory multiple myeloma", "assay": "DARZALEX monotherapy safety, three open-label clinical trials (N=156)", "assay_type": "in vivo, human", "source_text": "Serious adverse reactions were reported in 51 (33%) patients.\nTable 23 describes Grade 3-4 laboratory abnormalities reported at a rate of ≥10%."}, "[2]": {"assay": "Clinical pharmacokinetics of daratumumab", "assay_type": "in vivo, human", "source_text": "Daratumumab volume of distribution was 4.7±1.3 L as monotherapy and 4.4±1.5 L as combination therapy following administration of the approved dosage.\nDaratumumab clearance decreased with increasing dose and with multiple dosing.\nThe effect of severe (total bilirubin>3 times ULN and any AST) hepatic impairment on daratumumab pharmacokinetics is unknown."}, "CD38 on red blood cells": {"target": "T1, CD38 on red blood cells (Homo sapiens, UniProt P28907)", "T1 construct": "endogenous in cells; host or cells: red blood cells (reagent RBCs used in serological testing)", "assay": "Interference with Indirect Antiglobulin Test (Indirect Coombs test)", "source_text": "Daratumumab binds to CD38 on red blood cells (RBCs) and results in a positive Indirect Antiglobulin Test (Indirect Coombs test). Daratumumab-mediated positive indirect antiglobulin test may persist for up to 6 months after the last daratumumab infusion. Daratumumab bound to RBCs masks detection of antibodies to minor antigens in the patient's serum [see References (15)]. The determination of a patient's ABO and Rh blood type are not impacted [see Drug Interactions (7.1)].\nDaratumumab binds to CD38 on RBCs and interferes with compatibility testing, including antibody screening and cross matching. Daratumumab interference mitigation methods include treating reagent RBCs with dithiothreitol (DTT) to disrupt daratumumab binding [see References (15)] or genotyping. Since the Kell blood group system is also sensitive to DTT treatment, K-negative units should be supplied after ruling out or identifying alloantibodies using DTT-treated RBCs."}, "[3]": {"assay": "Clinical pharmacokinetic drug-drug interaction assessments", "settings": "human, in vivo"}, "multiple myeloma": {"test_system": "multiple myeloma", "assay": "Clinical trials pooled, monotherapy and combination treatments (N=2,066)", "assay_type": "in vivo, human"}, "[4]": {"assay": "Immunogenicity, anti-daratumumab antibodies in clinical trials", "assay_type": "in vivo, human", "source_text": "As with all therapeutic proteins, there is the potential for immunogenicity. The detection of antibody formation is highly dependent on the sensitivity and specificity of the assay. Additionally, the observed incidence of antibody (including neutralizing antibody) positivity in an assay may be influenced by several factors including assay methodology, sample handling, timing of sample collection, concomitant medications, and underlying disease. For these reasons, comparison of the incidence of antibodies to daratumumab in the studies described below with the incidence of antibodies in other studies or to other products may be misleading. […] One patient administered DARZALEX as combination therapy, developed transient neutralizing antibodies against daratumumab. However, this assay has limitations in detecting anti-daratumumab antibodies in the presence of high concentrations of daratumumab; therefore, the incidence of antibody development might not have been reliably determined."}, "NK cells": {"test_system": "NK cells", "assay": "Pharmacodynamics, NK cell counts", "assay_type": "in vivo, human", "settings": "peripheral whole blood and bone marrow", "source_text": "NK cells express CD38 and are susceptible to daratumumab mediated cell lysis."}, "[5]": {"test_system": "relapsed or refractory multiple myeloma", "assay": "SIRIUS (NCT01985126) open-label DARZALEX monotherapy trial", "assay_type": "in vivo, human", "source_text": "Treatment continued until unacceptable toxicity or disease progression.\nThe median patient age was 63.5 years (range: 31 to 84 years), 49% were male and 79% were Caucasian. Patients had received a median of 5 prior lines of therapy. […] Prior therapies included bortezomib (99%), lenalidomide (99%), pomalidomide (63%) and carfilzomib (50%)."}, "[6]": {"test_system": "multiple myeloma, prior PI and immunomodulatory agent", "assay": "EQUULEUS (NCT01998971) open-label trial, DARZALEX with pomalidomide and dexamethasone", "protocol": "In [sequence], patients receiving daratumumab combination treatment (n=97) were administered the first 16 mg/kg daratumumab dose at Week 1 split over two days i.e. 8 mg/kg on Day 1 and Day 2 respectively.\nPomalidomide (4 mg once daily orally on Days 1-21 of repeated 28-day [4-week] cycles) was given with low dose oral or intravenous dexamethasone 40 mg/week (reduced dose of 20 mg/week for patients>75 years or BMI<18.5).\nThe median patient age was 64 years (range: 35 to 86 years) with 8% of patients≥75 years of age. Patients in the study had received a median of 4 prior lines of therapy. Seventy-four percent (74%) of patients had received prior ASCT. Ninety-eight percent (98%) of patients received prior bortezomib treatment, and 33% of patients received prior carfilzomib. All patients received prior lenalidomide treatment, with 98% of patients previously treated with the combination of bortezomib and lenalidomide. Eighty nine percent (89%) of patients were refractory to lenalidomide and 71% refractory to bortezomib; 64% of patients were refractory to bortezomib and lenalidomide."}}}
{"substance": "DARZALEX: IgG1κ human monoclonal antibody against CD38, HC SEQ ID NO: 9 and LC SEQ ID NO: 10", "values": [{"measurement": "Pain in extremity, Grade 4", "setting": "[1]; human, in vivo", "value": 0, "unit": "%"}, {"measurement": "Pneumonia, Any Grade", "setting": "[1]; human, in vivo", "value": 11, "unit": "%"}, {"measurement": "Pneumonia, Grade 3", "setting": "[1]; human, in vivo", "value": 6, "unit": "%"}, {"measurement": "Pneumonia, Grade 4", "setting": "[1]; human, in vivo", "value": 0, "unit": "%"}, {"measurement": "Pyrexia, Any Grade", "setting": "[1]; human, in vivo", "value": 21, "unit": "%"}, {"measurement": "Pyrexia, Grade 3", "setting": "[1]; human, in vivo", "value": 1, "unit": "%"}, {"measurement": "Pyrexia, Grade 4", "setting": "[1]; human, in vivo", "value": 0, "unit": "%"}, {"measurement": "Serious adverse reaction, general physical health deterioration", "setting": "[1]; human, in vivo", "value": 3, "unit": "%"}, {"measurement": "Serious adverse reaction, pneumonia", "setting": "[1]; human, in vivo", "value": 6, "unit": "%"}, {"measurement": "Serious adverse reaction, pyrexia", "setting": "[1]; human, in vivo", "value": 3, "unit": "%"}, {"measurement": "Upper respiratory tract infection, Any Grade", "setting": "[1]; human, in vivo", "value": 20, "unit": "%"}, {"measurement": "Upper respiratory tract infection, Grade 3", "setting": "[1]; human, in vivo", "value": 1, "unit": "%"}, {"measurement": "Upper respiratory tract infection, Grade 4", "setting": "[1]; human, in vivo", "value": 0, "unit": "%"}, {"measurement": "Vomiting, Any Grade", "setting": "[1]; human, in vivo", "value": 14, "unit": "%"}, {"measurement": "Vomiting, Grade 3", "setting": "[1]; human, in vivo", "value": 0, "unit": "%"}, {"measurement": "Vomiting, Grade 4", "setting": "[1]; human, in vivo", "value": 0, "unit": "%"}, {"measurement": "discontinuations due to adverse reactions", "setting": "[1]; human, in vivo", "value": 4, "unit": "%"}, {"measurement": "treatment delay due to adverse reactions", "setting": "[1]; human, in vivo", "value": 15, "unit": "%"}, {"measurement": "Anemia, Any Grade", "setting": "[1]; lab abnormality", "value": 45, "unit": "%"}, {"measurement": "Anemia, Grade 3", "setting": "[1]; lab abnormality", "value": 19, "unit": "%"}, {"measurement": "Anemia, Grade 4", "setting": "[1]; lab abnormality", "value": 0, "unit": "%"}, {"measurement": "Lymphopenia, Any Grade", "setting": "[1]; lab abnormality", "value": 72, "unit": "%"}, {"measurement": "Lymphopenia, Grade 3", "setting": "[1]; lab abnormality", "value": 30, "unit": "%"}, {"measurement": "Lymphopenia, Grade 4", "setting": "[1]; lab abnormality", "value": 10, "unit": "%"}, {"measurement": "Neutropenia, Any Grade", "setting": "[1]; lab abnormality", "value": 60, "unit": "%"}, {"measurement": "Neutropenia, Grade 3", "setting": "[1]; lab abnormality", "value": 17, "unit": "%"}, {"measurement": "Neutropenia, Grade 4", "setting": "[1]; lab abnormality", "value": 3, "unit": "%"}, {"measurement": "Thrombocytopenia, Any Grade", "setting": "[1]; lab abnormality", "value": 48, "unit": "%"}, {"measurement": "Thrombocytopenia, Grade 3", "setting": "[1]; lab abnormality", "value": 10, "unit": "%"}, {"measurement": "Thrombocytopenia, Grade 4", "setting": "[1]; lab abnormality", "value": 8, "unit": "%"}, {"measurement": "mean serum Cmax at end of weekly dosing compared to first dose", "setting": "[2]; approved recommended dosage, monotherapy or combination", "value": "2.7 to 3", "unit": "fold"}, {"measurement": "Terminal half-life", "setting": "[2]; combination therapy vs monotherapy", "value": "similar"}, {"measurement": "trough serum concentration (Cmin) at end of weekly dosing, mean±SD", "setting": "[2]; monotherapy", "value": "573 ± 332", "unit": "µg/mL"}, {"measurement": "linear clearance, mean±SD", "setting": "[2]; monotherapy, estimated", "value": "171.4 ± 95.3", "unit": "mL/day"}, {"measurement": "terminal half-life associated with linear clearance, mean±SD", "setting": "[2]; monotherapy, estimated", "value": "18 ± 9", "unit": "days"}, {"measurement": "pharmacokinetics in specific populations", "setting": "[2]; sex, age, mild and moderate hepatic impairment, renal impairment", "value": "No clinically significant differences"}, {"measurement": "persistence of positive indirect antiglobulin test after the last infusion", "setting": "CD38 on red blood cells", "value": "up to 6 months"}, {"measurement": "drug-drug interactions with lenalidomide, pomalidomide, bortezomib and dexamethasone", "setting": "[3]", "value": "no clinically relevant drug-drug interactions"}, {"measurement": "Grade 3/4 infusion reaction at Week 2 or subsequent infusions", "setting": "multiple myeloma; human, in vivo", "value": "Less than 1%"}, {"measurement": "incidence of any grade infusion reactions, Week 2 infusion", "setting": "multiple myeloma; human, in vivo", "value": 2, "unit": "%"}, {"measurement": "incidence of any grade infusion reactions, first (16 mg/kg, Week 1) infusion", "setting": "multiple myeloma; human, in vivo", "value": 37, "unit": "%"}, {"measurement": "incidence of any grade infusion reactions, subsequent infusions (cumulative)", "setting": "multiple myeloma; human, in vivo", "value": 6, "unit": "%"}, {"measurement": "time after completing infusion within which nearly all reactions occurred", "setting": "multiple myeloma; human, in vivo", "value": "≤ 4", "unit": "h"}, {"measurement": "patients who experienced an infusion reaction", "setting": "multiple myeloma; in clinical trials", "value": "approximately half"}, {"measurement": "time after infusion at which infusion reactions occurred", "setting": "multiple myeloma; prior to the introduction of post-infusion medication", "value": "up to 48 hours"}, {"measurement": "transient neutralizing antibodies against daratumumab", "setting": "[4]; combination therapy", "value": "One patient"}, {"measurement": "patients positive for anti-daratumumab antibodies", "setting": "[4]; of the 1,050 evaluable combination therapy patients", "value": 2}, {"measurement": "absolute counts and percentages of total and activated NK cells", "setting": "NK cells", "value": "Decreases"}, {"measurement": "Overall response rate (ORR)", "setting": "[5]; Independent Review Committee, IMWG criteria", "value": "31 (29.2%)"}, {"measurement": "Complete response (CR)", "setting": "[5]; in vivo", "value": 0}, {"measurement": "Partial response (PR)", "setting": "[5]; in vivo", "value": "18 (17.0%)"}, {"measurement": "Stringent complete response (sCR)", "setting": "[5]; in vivo", "value": "3 (2.8%)"}, {"measurement": "Very good partial response (VGPR)", "setting": "[5]; in vivo", "value": "10 (9.4%)"}, {"measurement": "median duration of response", "setting": "[5]; in vivo", "value": 7.4, "unit": "months"}, {"measurement": "median time to response", "setting": "[5]; in vivo", "value": 1, "unit": "month"}, {"measurement": "incidence of any grade infusion-related reactions", "setting": "[6]; combination treatment (n=97), first 16 mg/kg dose split over two days", "value": 42, "unit": "%"}, {"measurement": "infusion reactions on Day 2 of Week 1", "setting": "[6]; split first dose", "value": 4, "unit": "%"}, {"measurement": "infusion reactions with subsequent infusions", "setting": "[6]; split first dose", "value": 8, "unit": "%"}]}
